# Changes are numbered by the printed parent chain.
# T1: Mos-1 transposase FTY (Drosophila mauritiana, UniProt Q7JQ07 SEQ:1-345, F53Y,T216A,Y237C)
# T1 sequence: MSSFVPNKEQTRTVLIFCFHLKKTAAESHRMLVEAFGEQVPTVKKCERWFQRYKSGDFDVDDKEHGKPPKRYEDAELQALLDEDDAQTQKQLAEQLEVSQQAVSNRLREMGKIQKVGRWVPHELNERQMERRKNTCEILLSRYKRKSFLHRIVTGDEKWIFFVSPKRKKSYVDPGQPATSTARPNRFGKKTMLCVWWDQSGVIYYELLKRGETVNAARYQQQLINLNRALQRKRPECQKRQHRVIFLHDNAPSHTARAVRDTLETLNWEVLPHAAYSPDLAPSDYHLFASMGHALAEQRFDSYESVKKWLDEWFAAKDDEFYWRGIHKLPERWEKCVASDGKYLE
# T2: MBP-Mos-1 transposase (MBP-Tnp) (Drosophila mauritiana, UniProt Q7JQ07 SEQ:1-345)
# T2 sequence: T1 sequence with Y53F, A216T, C237Y
# T3: Mos-1 transposase FT (Drosophila mauritiana, UniProt Q7JQ07 SEQ:1-345, F53Y,T216A)
# T3 sequence: T1 sequence with C237Y
# T4: Mos-1 transposase QY (Drosophila mauritiana, UniProt Q7JQ07 SEQ:1-345, Q91R,Y237C)
# T4 sequence: T1 sequence with Y53F, Q91R, A216T
# B1: ITR46 (dsDNA)
# DNA 1: TCAGGTGTACAAGTATGAGATGTCGTTT
# DNA 2: AAACGACATCTCATACTTGTACACCTGA
# B2: ITR40 (dsDNA)
# DNA 1: TCAGGTGTACAAGTATGTAATGTCGTTA
# DNA 2: TAACGACATTACATACTTGTACACCTGA
# How the values were obtained:
# [1] = target: T1, Mos-1 transposase FTY; assay: cell_activity; 3T46 transposition in E. coli T5 vs 3T3/WT; settings: chain copies: 2
# Protocol: (§1) Escherichia coli JM109 bacteria were co-transformed with the pBC 3T3 plasmid (comprising a transposition reporter 2 ITR 3′ mariner-like element and the chloramphenicol resistance gene) and with the inducible vector encoding for the transposase (pKK-Tnp or pMal-Tnp) comprising the ampicillin resistance gene. The bacteria selection was performed on ampicillin (100 μg/ml) and chloramphenicol in order to verify the presence of the two plasmids.
# (§2) The JM109 bacteria containing both the pBC 3T3 plasmid and the pKK-Tnp (or pMalC2X-Tnp) plasmid were placed in culture for 1 hr at 37° C. in 250 μl of LB. This inoculum was then poured into 5 ml of LB supplemented with 1 mM IPTG. The culture was titrated on LB plates (100 μl of a 1/1000 dilution) and on LB-Tet plates (12.5 μg/ml) (250 μl of the non-diluted culture). The culture induced by IPTG was then cultured for 5 hours at 32° C. (optimal temperature of transposase) under stirring (250 rpm). The bacterial suspension was then titrated on LB plates (100 μl of a 1/250,000 dilution) and on LB-tet plates (100 μl of the undiluted bacterial suspension). The plates were placed at 37° C. overnight. The following day, the colonies were counted on LB and LB-Tet plates, and the transposition frequency (equal to the number of tetracycline bacteria over the number of bacterial per 1 ml of undiluted bacterial suspension) was calculated.
# (§3) In order to evaluate the transposition efficiency of systems associating a hyperactive transposase and a pseudo-transposon that is also hyperactive, various combinations were tested in the transposition test in bacteria described in part I, paragraph I-B above.
# [2] = target: T2, MBP-Mos-1 transposase (MBP-Tnp); assay: competition; competes with labelled ITR3'; settings: tags: N-terminal MBP (pMalC2x); chain copies: 2
# Protocol: The principle of these tests is illustrated in FIG. 9. […] The greater the shift, the greater the “improvement” of the ITRSelex sequence with respect to ITR3′. In practice, the transposase fixing reaction is carried out in 20 μl containing 10 mM of Tris pH9 buffer, 0.5 mM of DDT, 5 mM MgCl₂, 5% (vol/vol) of glycerol, 1 μg of herring sperm DNA and 100 ng of BSA, in the presence of 15 nM of radiolabelled ITR3′ and non-radiolabelled ITRSelex. The non-radiolabelled ITRSelex concentrations tested were 0 nM, 15 nM, 75 nM, 150 nM, 300 nM, 750 nM, 1500 nM.
# [3] = target: T3, Mos-1 transposase FT; assay: cell_activity; 3T40 transposition in E. coli T5 vs 3T3/WT; settings: chain copies: 2
# Protocol: as §1, §2, §3
# [4] = target: T4, Mos-1 transposase QY; assay: as above; settings: chain copies: 2
# Protocol: as §1, §2, §3
Binder,activity [1],binding result [2],activity [3],activity [4]
B1,19.4 fold,,,
B2,,binds,2 fold,1.3 fold

# Source: patent US20100291682, “SYSTEM FOR TRANSPOSING HYPERACTIVE RECOMBINANT DERIVATIVES OF MOS-1 TRANSPOSON” (published 2010)
